Series [1] concerns the target T1, BRCA2OB (human, UniProt P51587 2665-3197).
T1 sequence: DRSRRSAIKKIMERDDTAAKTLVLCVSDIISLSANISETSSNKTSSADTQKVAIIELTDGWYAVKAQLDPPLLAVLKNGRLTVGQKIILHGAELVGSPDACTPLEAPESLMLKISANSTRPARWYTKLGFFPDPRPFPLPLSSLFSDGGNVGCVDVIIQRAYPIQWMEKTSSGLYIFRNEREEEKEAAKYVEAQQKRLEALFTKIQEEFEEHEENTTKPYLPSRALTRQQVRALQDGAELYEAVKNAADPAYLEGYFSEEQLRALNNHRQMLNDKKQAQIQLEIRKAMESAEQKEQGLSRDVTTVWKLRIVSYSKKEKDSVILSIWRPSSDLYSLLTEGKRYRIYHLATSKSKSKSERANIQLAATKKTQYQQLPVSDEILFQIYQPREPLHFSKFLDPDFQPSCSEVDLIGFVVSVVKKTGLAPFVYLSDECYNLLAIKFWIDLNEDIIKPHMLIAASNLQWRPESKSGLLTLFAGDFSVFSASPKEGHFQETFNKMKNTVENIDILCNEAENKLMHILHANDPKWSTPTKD
The series is described as follows: EMSA; 100 mM KCl; rough estimate, max protein 1 uM; EMSA: 10 nM probe, 50 mM Tris-HCl pH 7.5, 100 mM KCl, 2 mM b-ME, 10% glycerol, probe pre-incubated 37 C, gel 4 C (RAD51: +1 mM MgCl2, 2 mM ATP); smFRET: 50 mM Tris-HCl pH 7.9, 100 mM KCl, 20 mM NaCl, 1 mM DTT, 0.1 mg/ml BSA, 9% glycerol, 37 C. The following applies: protein: recombinant, tags: N-MBP, C-6xHis, label: 5' 32P.

The target in a further series is T2, POT1OB (human, UniProt Q9NUX5 10-278).
T2 sequence: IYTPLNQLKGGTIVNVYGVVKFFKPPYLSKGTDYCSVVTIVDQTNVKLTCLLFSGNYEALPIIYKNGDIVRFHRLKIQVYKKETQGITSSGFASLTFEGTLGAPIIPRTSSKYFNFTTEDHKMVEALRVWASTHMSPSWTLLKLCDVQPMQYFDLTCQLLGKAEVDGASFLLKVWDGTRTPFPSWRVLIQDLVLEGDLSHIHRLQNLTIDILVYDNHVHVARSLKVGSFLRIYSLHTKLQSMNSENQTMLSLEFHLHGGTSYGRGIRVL
Description: EMSA; 100 mM KCl; EMSA: 10 nM probe, 50 mM Tris-HCl pH 7.5, 100 mM KCl, 2 mM b-ME, 10% glycerol, probe pre-incubated 37 C, gel 4 C (RAD51: +1 mM MgCl2, 2 mM ATP); smFRET: 50 mM Tris-HCl pH 7.9, 100 mM KCl, 20 mM NaCl, 1 mM DTT, 0.1 mg/ml BSA, 9% glycerol, 37 C. Particulars: protein: recombinant, tags: N-MBP, C-6xHis, label: 5' 32P.

The target in series [2] is T3, RAD51 (human, UniProt Q06609 1-339). The series is described as follows: EMSA; 250 nM RAD51, 2 mM ATP, no BRCA2OB; EMSA: 10 nM probe, 50 mM Tris-HCl pH 7.5, 100 mM KCl, 2 mM b-ME, 10% glycerol, probe pre-incubated 37 C, gel 4 C (RAD51: +1 mM MgCl2, 2 mM ATP); smFRET: 50 mM Tris-HCl pH 7.9, 100 mM KCl, 20 mM NaCl, 1 mM DTT, 0.1 mg/ml BSA, 9% glycerol, 37 C. Particulars: protein: commercial; label: 5' 32P; intramolecular G4 (dynamic).

The target in series [3] is T1, BRCA2OB. Description: EMSA; 100 mM KCl; EMSA: 10 nM probe, 50 mM Tris-HCl pH 7.5, 100 mM KCl, 2 mM b-ME, 10% glycerol, probe pre-incubated 37 C, gel 4 C (RAD51: +1 mM MgCl2, 2 mM ATP); smFRET: 50 mM Tris-HCl pH 7.9, 100 mM KCl, 20 mM NaCl, 1 mM DTT, 0.1 mg/ml BSA, 9% glycerol, 37 C. The following applies: protein: recombinant; tags: N-MBP, C-6xHis; label: 5' 32P; G-triplex / G3:G4.

Series [4] has as its target T1, BRCA2OB. The description is as above. The following applies: protein: recombinant; tags: N-MBP, C-6xHis; label: 5' 32P; intramolecular G4.
The target of series [5] is T3, RAD51. The series is described as follows: EMSA; ATP; facilitated by BRCA2OB, about constant with dose; EMSA: 10 nM probe, 50 mM Tris-HCl pH 7.5, 100 mM KCl, 2 mM b-ME, 10% glycerol, probe pre-incubated 37 C, gel 4 C (RAD51: +1 mM MgCl2, 2 mM ATP); smFRET: 50 mM Tris-HCl pH 7.9, 100 mM KCl, 20 mM NaCl, 1 mM DTT, 0.1 mg/ml BSA, 9% glycerol, 37 C. The following applies: protein: commercial; label: 5' 32P; intramolecular G4.

Series [6] addresses T1, BRCA2OB. The series is described as follows: EMSA; 100 mM KCl; EMSA: 10 nM probe, 50 mM Tris-HCl pH 7.5, 100 mM KCl, 2 mM b-ME, 10% glycerol, probe pre-incubated 37 C, gel 4 C (RAD51: +1 mM MgCl2, 2 mM ATP); smFRET: 50 mM Tris-HCl pH 7.9, 100 mM KCl, 20 mM NaCl, 1 mM DTT, 0.1 mg/ml BSA, 9% glycerol, 37 C. Particulars: protein: recombinant; tags: N-MBP, C-6xHis; label: 5' 32P; intramolecular G4. The source holds these as a separate data set.

In series [7] the target is T1, BRCA2OB. The series is described as above. Particulars: protein: recombinant; tags: N-MBP, C-6xHis; label: 5' 32P; intramolecular G4. This is another data set of the same source.
Series [8] deals with T1, BRCA2OB. Described as above. The following applies: protein: recombinant; tags: N-MBP, C-6xHis; label: 5' 32P; intramolecular G4. This is another data set of the same source.

T3 sequence (Q06609 whole entry): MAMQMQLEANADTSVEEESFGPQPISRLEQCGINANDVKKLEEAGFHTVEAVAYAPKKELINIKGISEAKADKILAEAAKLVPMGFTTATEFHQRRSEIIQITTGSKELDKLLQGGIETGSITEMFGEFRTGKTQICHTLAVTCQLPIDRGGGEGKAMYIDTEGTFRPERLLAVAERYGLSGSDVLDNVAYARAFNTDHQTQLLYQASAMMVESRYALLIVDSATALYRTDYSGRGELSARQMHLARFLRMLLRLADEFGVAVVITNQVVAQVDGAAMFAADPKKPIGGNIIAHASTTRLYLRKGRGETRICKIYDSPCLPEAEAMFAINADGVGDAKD

In the case of GGTTAGGGTTAGGGTTAGGGTTAGGGTTAG (structured_DNA) [TelG5], the Kd with BRCA2OB [1] (intramolecular G4 (dynamic)) is 4.4 µM. Further, the binding result with POT1OB (intramolecular G4 (dynamic)) and with RAD51 [2] was “binds” throughout.

For the molecule GGTTAGGGTTAGGGTTAGTGTTAGGGTTAG (structured_DNA) [TelG5-G3], the binding signal with BRCA2OB [3] worked out at 3 fold vs TelG5.

On to GGTTTGGGTTTGGGTTTGGGTTTGGGTTTG (structured_DNA) [TelG5TTT], for which the Kd with BRCA2OB [4] amounted to 0.456 µM. Moreover, the binding result with POT1OB (intramolecular G4) is recorded as “no binding”; with RAD51 [5], “binds”. Also, the binding signal with BRCA2OB [6] was ~9 fold vs TelG5.

As for GGTTGGGGTTGGGGTTGGGGTTGGGGTTGG (structured_DNA) [TelG5T2G4], the Kd with BRCA2OB [1] (intramolecular G4) was 1.4 µM. In addition, in the series with POT1OB (intramolecular G4), the binding result was “no binding”. Also, the binding signal with BRCA2OB [7] is ~3 fold vs TelG5.

Take GGTTTGGGTTGGGTTGGGTTGGGTTTG (structured_DNA) [TelG5TT]: the binding signal in the series with BRCA2OB [8] stood at 13 fold vs TelG5.

Values taken from publication PMC9192595, “Dynamic interaction of BRCA2 with telomeric G-quadruplexes underlies telomere replication homeostasis”.
